Reference: paper doi:10.1101/2024.02.19.580884 (bioRxiv, 2024)

Columns and labels:
Assay in all cases: pull-down
6xHis-AccC = target: T1, 6xHis-AccC (Bacillus subtilis 168, UniProt P49787 1-450)
T1 sequence (looked up): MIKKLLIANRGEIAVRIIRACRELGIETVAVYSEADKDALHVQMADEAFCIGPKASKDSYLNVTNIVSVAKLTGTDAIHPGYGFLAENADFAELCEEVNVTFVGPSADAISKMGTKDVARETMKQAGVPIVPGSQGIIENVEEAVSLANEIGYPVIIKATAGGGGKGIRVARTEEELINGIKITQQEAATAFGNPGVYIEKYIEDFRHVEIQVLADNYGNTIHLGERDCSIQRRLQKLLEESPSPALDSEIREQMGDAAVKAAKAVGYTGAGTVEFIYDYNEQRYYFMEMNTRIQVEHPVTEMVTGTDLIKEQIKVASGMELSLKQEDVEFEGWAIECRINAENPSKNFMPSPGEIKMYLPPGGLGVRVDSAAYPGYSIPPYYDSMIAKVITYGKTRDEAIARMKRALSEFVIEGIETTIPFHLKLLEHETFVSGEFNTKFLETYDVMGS

Strep-tagged AccB = target: T2, Strep-tagged AccB (Bacillus subtilis 168, UniProt P49786 1-159)
T2 sequence (looked up): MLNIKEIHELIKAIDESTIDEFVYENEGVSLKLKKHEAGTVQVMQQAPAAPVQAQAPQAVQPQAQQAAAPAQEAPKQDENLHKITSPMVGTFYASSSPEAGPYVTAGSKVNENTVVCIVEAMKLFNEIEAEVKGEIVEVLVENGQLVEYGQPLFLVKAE

Strep-tagged AccC = target: T3, Strep-tagged AccC (Bacillus subtilis 168, UniProt P49787 1-450)
T3 sequence (looked up): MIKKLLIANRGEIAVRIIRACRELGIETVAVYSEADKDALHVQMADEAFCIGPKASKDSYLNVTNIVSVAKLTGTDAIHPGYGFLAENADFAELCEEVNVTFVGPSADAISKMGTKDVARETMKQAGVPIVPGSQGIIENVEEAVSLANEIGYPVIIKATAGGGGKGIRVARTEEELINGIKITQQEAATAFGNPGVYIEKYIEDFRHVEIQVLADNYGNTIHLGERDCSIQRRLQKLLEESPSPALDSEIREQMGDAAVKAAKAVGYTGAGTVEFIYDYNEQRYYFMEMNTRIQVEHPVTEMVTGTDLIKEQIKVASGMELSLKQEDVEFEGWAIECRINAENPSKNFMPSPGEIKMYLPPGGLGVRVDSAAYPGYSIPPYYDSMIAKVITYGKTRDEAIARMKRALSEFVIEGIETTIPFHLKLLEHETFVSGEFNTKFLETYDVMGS

B1: GST-tagged RfaA (natural protein, Bacillus subtilis 168, UniProt P54519 1-135, looked up)
chain: MKDNSLLKMDHEDTHLGKVEIAPEVIEVIAGIAASEVDGVAEMRGNFATGVVERFGKVNHGKGVKVDLADDGITIDVYCVVTFGVSIPKVAASVQENIRQTLLNMTSLSINEINIHIVGIQFDTKAQEVQIDEEM
B1: binds (6xHis-AccC).

B2: 6xHis-SUMO-RfaA (natural protein, Bacillus subtilis 168, UniProt P54519 1-135, looked up)
chain: MKDNSLLKMDHEDTHLGKVEIAPEVIEVIAGIAASEVDGVAEMRGNFATGVVERFGKVNHGKGVKVDLADDGITIDVYCVVTFGVSIPKVAASVQENIRQTLLNMTSLSINEINIHIVGIQFDTKAQEVQIDEEM
B2: binds (Strep-tagged AccB); binds (Strep-tagged AccC).
